In article PMC3634016 (2013):

Target: Ca^2+-CaM pre-bound to the mammalian Cav1.2 IQ peptide (rat | human, UniProt P0DP29 1-149)
Assay: ITC; Ca2+; CaM pre-bound to Cav1.2 IQ

Binder: SWQAAIDAARQAKLMGS [mammalian NSCaTE_(Cav1.2) peptide]
- Kd: 1800 nM
